Experimental data as given in the supplement of paper PMC7877785.
± gives the uncertainty stated by the source.

Assay: self-splicing fitness, log relative to wild type (ln ratio); higher = more splicing; Tetrahymena group I intron in knt gene, E. coli kanamycin selection, DiMSum; sequences stand for … in CUCUCU…GGAGGGAAAAGUUAUCAGGCAUGCACCUGGUAGCUAGUCUUUAAACCAAUAGAUUGCAUCGGUUUAAAAGGCAAGACCGUCAAAUUGCGGGAAAGGGGUCAACAGCCGUUCAGUACCAAGUCUCAGGGGAAACUUUGAGAUGGCCUUGCAAAGGGUAUGGUAAUAAGCUGACGGACAUGGUCCUAACCACGCAGCCAAGUCCUAAGUCAACAGAUCUUCUGUUGAUAUGGAUGCAGUUCACAGACUAAAUGUCGGUCGGGGAAGAUGUAUUCUUCUCAUAAGAUAUAGUCGGACCUCUCCUUAAUGGGAGCUAGCGGAUGAAGUGAUGCAACACUGGAGCCGCUGGGAACUAAUUUGUAUGCGAAAGUAUAUUGAUUAGUUUUGGAGUACUCGUGGUCG
Outline: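 Six replicate transformations of E. coli BL21(DE3) with a pET-22b(+) library were grown overnight at 37°C or 30°C. The library randomised all eight P1ex-region intron nucleotides, the intron lying in the knt kanamycin-resistance gene, and plates were LB agar with or without 25 μg/mL kanamycin plus 100 μg/mL carbenicillin, 50 μM IPTG and 0.2% rhamnose. Pooled colonies were amplicon-sequenced on an Illumina HiSeq 2500, and fitness is the DiMSum error-weighted combination of wild-type-normalised replicate fold changes, kanamycin versus none.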

| Sequence | self-splicing fitness (ln) (30 °C) | self-splicing fitness (ln) (37 °C) |
| --- | --- | --- |
| GGUGAGCAAUAUUACGCUUU | -2.63 ± 0.4 | -3.04 ± 0.47 |
| CAGAAGCAAUAUUACGACUG | -3.23 ± 0.21 | -2.48 ± 0.19 |
| GUCUAGCAAUAUUACGUAGC | -1.45 ± 0.15 | 0.302 ± 0.2 |
| CUCAAGCAAUAUUACGACCU | -2.96 ± 0.15 | -1.34 ± 0.17 |
| UGAAAGCAAUAUUACGUUAC | -3.44 ± 0.25 | -2.35 ± 0.21 |
| UAGUAGCAAUAUUACGUUCG | -0.331 ± 0.091 | -0.159 ± 0.11 |
| CGCAAGCAAUAUUACGCGCA | -1.1 ± 0.086 | -1.46 ± 0.13 |
| GCCGAGCAAUAUUACGCAGG | -3.43 ± 0.25 | -4.04 ± 0.42 |
| UACUAGCAAUAUUACGGGAU | -3.17 ± 0.17 | -1.43 ± 0.13 |
| CAGAAGCAAUAUUACGAUUC | – | -1.98 ± 0.18 |
| UGCUAGCAAUAUUACGACUA | -0.649 ± 0.16 | -0.872 ± 0.14 |
| CGCCAGCAAUAUUACGACGU | -1.71 ± 0.076 | -1.5 ± 0.094 |
| CUUAAGCAAUAUUACGUAAC | -3.05 ± 0.24 | -1.26 ± 0.2 |
| GAUUAGCAAUAUUACGCAGA | -3.16 ± 0.23 | -1.16 ± 0.16 |
| GAGAAGCAAUAUUACGGAUU | -2.77 ± 0.11 | -1.63 ± 0.11 |
| GUGGAGCAAUAUUACGUCUC | -3.56 ± 0.15 | -2.77 ± 0.16 |
| CAAAAGCAAUAUUACGUUCC | -2.34 ± 0.33 | -2.17 ± 0.36 |
| AGAAAGCAAUAUUACGAGUA | -2.18 ± 0.097 | -1.13 ± 0.086 |
| CUAAAGCAAUAUUACGACUC | -4.65 ± 0.46 | -2.38 ± 0.31 |
| ACGGAGCAAUAUUACGCGUC | – | -1.92 ± 0.33 |
| GUUUAGCAAUAUUACGGCUG | -1.79 ± 0.1 | -0.169 ± 0.17 |
| UGUUAGCAAUAUUACGACAU | -2.59 ± 0.021 | -1.28 ± 0.035 |
| UUCUAGCAAUAUUACGGGAU | -3.72 ± 0.29 | -2.37 ± 0.3 |
| UAGGAGCAAUAUUACGUCAC | -3.99 ± 0.16 | -3.35 ± 0.21 |

| Sequence | self-splicing fitness (ln) (30 °C) | self-splicing fitness (ln) (37 °C) |
| --- | --- | --- |
| AUAGAGCAAUAUUACGACAG | -2.6 ± 0.18 | -0.985 ± 0.2 |
| AUGCAGCAAUAUUACGCUAG | -3.93 ± 0.26 | -2.49 ± 0.23 |
| CUUUAGCAAUAUUACGUAAG | -0.953 ± 0.081 | -0.626 ± 0.11 |
| UUACAGCAAUAUUACGUGAG | -0.626 ± 0.055 | 0.12 ± 0.092 |
| UCUGAGCAAUAUUACGUAAG | -0.697 ± 0.11 | -0.863 ± 0.19 |
| GUUAAGCAAUAUUACGGGAC | -1.6 ± 0.17 | -0.964 ± 0.23 |
| UCUUAGCAAUAUUACGCACG | -1.56 ± 0.29 | -1.47 ± 0.34 |
| AAAUAGCAAUAUUACGGCGC | -1.11 ± 0.15 | -0.73 ± 0.15 |
| UAUGAGCAAUAUUACGGCAU | -2.94 ± 0.27 | -2.05 ± 0.41 |
| GCUAAGCAAUAUUACGUAGU | -4.17 ± 0.31 | -2.32 ± 0.19 |
| CACAAGCAAUAUUACGAUUG | -2.41 ± 0.064 | -1.15 ± 0.075 |
| AUUGAGCAAUAUUACGCCUC | -2.53 ± 0.48 | -1.27 ± 0.42 |
| UUAGAGCAAUAUUACGCAAG | -1.18 ± 0.14 | -0.488 ± 0.22 |
| GUAUAGCAAUAUUACGCGUC | -2.87 ± 0.27 | -0.113 ± 0.24 |
| UGUAAGCAAUAUUACGCUGA | -3.08 ± 0.26 | -1.33 ± 0.16 |
| UGGCAGCAAUAUUACGGAUC | -2.22 ± 0.24 | -1.99 ± 0.46 |
| AUCGAGCAAUAUUACGGCAA | -2.19 ± 0.15 | -2.06 ± 0.18 |
| AAGGAGCAAUAUUACGGUCU | -2.3 ± 0.15 | -0.298 ± 0.12 |
| GGUGAGCAAUAUUACGAACG | -0.652 ± 0.13 | -1.23 ± 0.17 |
| CCUCAGCAAUAUUACGGCCG | -2.11 ± 0.1 | -0.442 ± 0.11 |
| AAUGAGCAAUAUUACGACGA | -2.44 ± 0.34 | -3.22 ± 0.47 |
| GACGAGCAAUAUUACGUCGC | -3.25 ± 0.47 | -0.634 ± 0.35 |
| GUUCAGCAAUAUUACGCGGU | -1.52 ± 0.11 | -1.69 ± 0.14 |
| UCUUAGCAAUAUUACGGCCA | -2.31 ± 0.38 | – |
